# Measurements: article PMC9282857
# Legend:
# Test in all cases: ITC; Affinity-ITC calorimeter, 25°C; 20 mM Tris-HCl pH 7.5, 150 mM NaCl, 1 mM DTT; independent binding model
# [1] = molecular target: Pub1 (287-767) (S. pombe) (UniProt Q92462)
# pub1-F576A (S. pombe) = pub1-F576A (S. pombe) (UniProt Q92462)
# [2] = molecular target: Rsp5 WW1-HECT domain (224-809) (S. cerevisiae) (UniProt P39940)
# [3] = molecular target: Rsp5 HECT domain (444-809) (S. cerevisiae) (UniProt P39940)
substance,measurement,setting,value
Any1 (17-361) (natural protein),Kd,[1],2100 nM
Any1 conjugated with K63 di-Ub (from UniProt P0CG63 1-76; P0CG63 1-76) (complex),fold enhancement of binding against non-conjugated Any1,[1],8 fold
same,Kd,pub1-F576A (S. pombe),2300 nM
Art1 PY motifs containing region (661-710) (domain or fragment),Kd,[2],3600 nM
K63 di-Ub with a distal end ubiquitin mutant (I44A) (from UniProt P0CG63 1-76; P0CG63 1-76) (complex),Kd,[3],120000 nM
